# Measured values reported in patent publication US10245299B2, “Autoassembling peptides for the treatment of pulmonary bulla” (3-D MATRIX, LTD., priority 2014, dated 2019).
# Tests used:
# Assay type in all cases: physicochemical
# [1] = Appearance of 1.5% peptide solutions with various salts at room temperature; conditions: for Appearance: IEIK13 solution, room temperature
# Protocol: The effect of salt ionic strength level on the properties of peptide solutions was evaluated to identify optimized salt ionic strength levels for the peptides as described herein. Increasing the salt ionic strength level of PuraMatrix® and other peptides may generally improve its function and mechanical strength for various clinical applications. To adjust the salt ionic strength of the peptide solutions by way of example, various salt buffer solutions including NaCl, KCl, MgCl2, CaCl2 and DPBS (10×) were added to 2 mL of 1.5% peptide solutions.
# [2] = Gelation of peptide solutions after saline buffer treatment, time sweep; conditions: saline buffer (0.15 M of NaCl); IEIK13 1.5%, KLD12 1.5%, PuraMatrix® 2.5% solution
# Protocol: The effect of salt ionic strength level surrounding peptide solution on the properties of peptide solutions was evaluated to identify the possibility of peptide gelation when the peptide solution is placed into the environment where salt ionic strength level is high. […] Without pH effect, the effect of saline treatment on gelation of peptide solutions were evaluated. […] This is because IEIK13 is much more sensitive to salt ionic strength levels. Fast gelation of IEIK13 at the salt ionic strength level similar to body fluid isotonic salt level may generally improve its function and gelation speed for various clinical applications. The results are shown in FIG. 19 for IEIK13, KLD12 and PuraMatrix® solutions. Time sweep tests were performed at 1 rad/sec and at 1 Pa with 20 mm plates and 500 μm gap distance. […]
# [3] = Rheological properties of pH adjusted peptide solutions and hydrogels; conditions: KLD12 1%, IEIK13 1%, PuraMatrix® 1% and 2.5%
# Protocol: Based on the visual observation of the effect of pH level on the properties of the peptide solutions, the effect on the rheological properties of the peptide solutions after adjusting their pH level to 3.4 (PuraMatrix® and KLD12) or 3.7 (IEIK13) was evaluated. If the pH levels of peptide solutions are higher than 3.5 (PuraMatrix® and KLD12) or 3.7 (IEIK13), the peptide solution began phase separation becoming cloudy. The rheological properties of PuraMatrix®, KLD12 and IEIK13 solutions were higher at pH 3.4. The results are shown in FIG. 2 for KLD12 1%, FIG. 3 for IEIK13 1%, and FIGS. 4-5 for PuraMatrix® 1% and 2.5%, respectively. Stress sweep tests were performed at 10 rad/s. Frequency sweep tests were performed at 1 Pa.
# Based on the results of the effect on the rheological properties of the peptide solutions after adjusting their pH level to 3.4 (PuraMatrix® and KLD12) or 3.7 (IEIK13), the effect on the rheological properties of the peptide solutions at various pH levels was evaluated. […] The rheological properties of peptides were evaluated at various concentrations using a rheometer (DHR-1, TA Instruments) with 20 mm plates. The results are shown in FIG. 6A for PuraMatrix® 2.5% solution and FIG. 6B for IEIK13 1.5% solution, respectively. Frequency sweep tests were performed from 1 rad/sec to 10 rad/sec at 1 Pa and the storage modulus at 1 rad/sec was selected for data.
# Based on the results of the effect on the rheological properties of the peptide solutions after adjusting their pH level, the effect on the rheological properties of the peptide hydrogels at various pH after DMEM treatment was evaluated and compared to the effect on the rheological properties of the peptide solutions at various pH before DMEM treatment. […] The results are shown in FIGS. 7A-7B for PuraMatrix® and FIGS. 8A-8B for IEIK (SEQ ID NO: 5), respectively. Frequency sweep tests were performed from 1 rad/sec to 10 rad/sec at 1 Pa and the storage modulus at 1 rad/sec was selected for data.
# [4] = pH and appearance of 2.5% peptide solutions after adding 0.1 N NaOH
# Protocol: To adjust the pH level of the peptide solutions by way of example, 0.1 N NaOH was added to 2 mL of 2.5% peptide solutions and their pH and appearance were measured.
substance,measurement,setting,value
Ile-Glu-Ile-Lys-Ile-Glu-Ile-Lys-Ile-Glu-Ile-Lys-Ile [IEIK13],Appearance,"[1]; conc. 1.16%, KCl 0.045 M, ionic strength 0.045 M","Cloudy, phase-separated"
same,Appearance,"[1]; conc. 1.2%, KCl 0.04 M, ionic strength 0.04 M","Slightly cloudy, brittle"
same,Appearance,"[1]; conc. 1.2%, NaCl 0.04 M, ionic strength 0.04 M","Cloudy, phase-separated"
same,Appearance,"[1]; conc. 1.24%, KCl 0.035 M, ionic strength 0.035 M","Slightly cloudy, brittle gel"
same,Appearance,"[1]; conc. 1.24%, NaCl 0.035 M, ionic strength 0.035 M","Slightly cloudy, brittle gel"
same,Appearance,"[1]; conc. 1.27%, KCl 0.03 M, ionic strength 0.03 M","Clear, thick, stiffer gel"
same,Appearance,"[1]; conc. 1.27%, NaCl 0.03 M, ionic strength 0.03 M","Slightly cloudy, thick, stiffer gel"
same,Appearance,"[1]; conc. 1.31%, KCl 0.025 M, ionic strength 0.025 M","Clear, thick, stiffer gel"
same,Appearance,"[1]; conc. 1.31%, NaCl 0.025 M, ionic strength 0.025 M","Clear, thick, stiffer gel"
same,Appearance,"[1]; conc. 1.35%, KCl 0.02 M, ionic strength 0.02 M","Clear, thick, stiffer gel"
same,Appearance,"[1]; conc. 1.35%, NaCl 0.02 M, ionic strength 0.02 M","Clear, thick, stiffer gel"
same,Appearance,"[1]; conc. 1.36%, CaCl2 0.0183 M, ionic strength 0.055 M","Cloudy, phase-separated"
same,Appearance,"[1]; conc. 1.36%, MgCl2 0.0183 M, ionic strength 0.055 M","Cloudy, phase-separated"
same,Appearance,"[1]; conc. 1.37%, CaCl2 0.0167 M, ionic strength 0.05 M","Slightly cloudy, brittle gel"
same,Appearance,"[1]; conc. 1.37%, MgCl2 0.0167 M, ionic strength 0.05 M","Slightly cloudy, brittle gel"
same,Appearance,"[1]; conc. 1.39%, CaCl2 0.015 M, ionic strength 0.045 M","Slightly cloudy, thick, stiffer gel"
same,Appearance,"[1]; conc. 1.39%, KCl 0.015 M, ionic strength 0.015 M","Clear, thick, stiffer gel"
same,Appearance,"[1]; conc. 1.39%, MgCl2 0.015 M, ionic strength 0.045 M","Slightly cloudy, stiffer gel"
same,Appearance,"[1]; conc. 1.39%, NaCl 0.015 M, ionic strength 0.015 M","Clear, thick, stiffer gel"
same,Appearance,"[1]; conc. 1.40%, CaCl2 0.0133 M, ionic strength 0.04 M","Slightly cloudy, thick, stiffer gel"
same,Appearance,"[1]; conc. 1.40%, MgCl2 0.0133 M, ionic strength 0.04 M","Slightly cloudy, thick, stiffer gel"
same,Appearance,"[1]; conc. 1.41%, CaCl2 0.0117 M, ionic strength 0.035 M","Clear, thick, stiffer gel"
same,Appearance,"[1]; conc. 1.41%, MgCl2 0.0117 M, ionic strength 0.035 M","Clear, thick, stiffer gel"
same,Appearance,"[1]; conc. 1.43%, CaCl2 0.01 M, ionic strength 0.03 M","Clear, thick, stiffer gel"
same,Appearance,"[1]; conc. 1.43%, KCl 0.01 M, ionic strength 0.01 M","Clear, thick, stiffer gel"
same,Appearance,"[1]; conc. 1.43%, MgCl2 0.01 M, ionic strength 0.03 M","Clear, thick, stiffer gel"
same,Appearance,"[1]; conc. 1.43%, NaCl 0.01 M, ionic strength 0.01 M","Clear, thick, stiffer gel"
same,Appearance,"[1]; conc. 1.44%, CaCl2 0.0083 M, ionic strength 0.025 M","Clear, thick, stiffer gel"
same,Appearance,"[1]; conc. 1.44%, MgCl2 0.0083 M, ionic strength 0.025 M","Clear, thick, stiffer gel"
same,Appearance,"[1]; conc. 1.45%, CaCl2 0.0067 M, ionic strength 0.02 M","Clear, thick, stiffer gel"
same,Appearance,"[1]; conc. 1.45%, MgCl2 0.0067 M, ionic strength 0.02 M","Clear, thick, stiffer gel"
same,Appearance,"[1]; conc. 1.46%, CaCl2 0.005 M, ionic strength 0.015 M","Clear, thick, stiffer gel"
same,Appearance,"[1]; conc. 1.46%, KCl 0.005 M, ionic strength 0.005 M","Clear, thick, stiffer gel"
same,Appearance,"[1]; conc. 1.46%, MgCl2 0.005 M, ionic strength 0.015 M","Clear, thick, stiffer gel"
same,Appearance,"[1]; conc. 1.46%, NaCl 0.005 M, ionic strength 0.005 M","Clear, thick, stiffer gel"
same,Appearance,"[1]; conc. 1.5%, CaCl2 0 M, ionic strength 0 M","Clear, thick gel"
same,Appearance,"[1]; conc. 1.5%, KCl 0 M, ionic strength 0 M","Clear, thick gel"
same,Appearance,"[1]; conc. 1.5%, MgCl2 0 M, ionic strength 0 M","Clear, thick gel"
same,Appearance,"[1]; conc. 1.5%, NaCl 0 M, ionic strength 0 M","Clear, thick gel"
same,salt ionic strength increase that did not change the clear color of the solution (apparent stiffness increased),"[1]; depending on different salts, 1.5% peptide solutions",0.025˜0.035 M
same,gelation after saline buffer treatment,[2],fast gelation
same,rheological properties of solutions at pH 3.4,[3],higher
same,Appearance,"[4]; 0.1N NaOH 0 μL/mL, conc. 2.5%, pH 1.8","Clear, thick gel"
same,Appearance,"[4]; 0.1N NaOH 50 μL/mL, conc. 2.38%, pH 2.1","Clear, thick gel"
same,Appearance,"[4]; 0.1N NaOH 100 μL/mL, conc. 2.27%, pH 2.2","Clear, thick gel"
same,Appearance,"[4]; 0.1N NaOH 150 μL/mL, conc. 2.17%, pH 2.7","Clear, thick gel,"
same,Appearance,"[4]; 0.1N NaOH 200 μL/mL, conc. 2.08%, pH 3.0","Clear, thick gel,"
same,Appearance,"[4]; 0.1N NaOH 250 μL/mL, conc. 2.0%, pH 3.3","Clear, thick gel,"
same,Appearance,"[4]; 0.1N NaOH 275 μL/mL, conc. 1.96%, pH 3.7","Clear, thick,"
same,Appearance,"[4]; 0.1N NaOH 300 μL/mL, conc. 1.92%, pH 4.0","Slightly cloudy,"
same,Appearance,"[4]; 0.1N NaOH 350 μL/mL, conc. 1.85%, pH 4.5","Cloudy, brittle gel"
same,Appearance,"[4]; 0.1N NaOH 400 μL/mL, conc. 1.79%, pH 5.4","Cloudy, phase-"
same,Peptide solution pH,"[4]; 0.1N NaOH added in 2.5% solution 0 μL/mL, conc. 2.5%",1.8
same,Peptide solution pH,"[4]; 0.1N NaOH added in 2.5% solution 50 μL/mL, conc. 2.38%",2.1
same,Peptide solution pH,"[4]; 0.1N NaOH added in 2.5% solution 100 μL/mL, conc. 2.27%",2.2
same,Peptide solution pH,"[4]; 0.1N NaOH added in 2.5% solution 150 μL/mL, conc. 2.17%",2.7
same,Peptide solution pH,"[4]; 0.1N NaOH added in 2.5% solution 200 μL/mL, conc. 2.08%",3.0
same,Peptide solution pH,"[4]; 0.1N NaOH added in 2.5% solution 250 μL/mL, conc. 2.0%",3.3
same,Peptide solution pH,"[4]; 0.1N NaOH added in 2.5% solution 275 μL/mL, conc. 1.96%",3.7
same,Peptide solution pH,"[4]; 0.1N NaOH added in 2.5% solution 300 μL/mL, conc. 1.92%",4.0
same,Peptide solution pH,"[4]; 0.1N NaOH added in 2.5% solution 350 μL/mL, conc. 1.85%",4.5
same,Peptide solution pH,"[4]; 0.1N NaOH added in 2.5% solution 400 μL/mL, conc. 1.79%",5.4
same,Appearance,[4]; pH 7.0,"Cloudy, phase-"
